Data on 1 substance can be found in publication doi:10.1101/2022.08.08.503162.

pKd: −log10 of the molar value.

For this test, the target named is His6-tagged luminal domain (ectodomain) of human SR-B1, amino acids 33-444 (human) (UniProt Q8WTV0). Kind of test: MST.

One may read the pKd as the Kd on a negative log10 scale, so that one unit is a factor of ten. Lower therefore signals a high Kd. For “full-length APOA1-Milano expressed in 293F cells (protein A-APOA1-Milano construct) (from UniProt P02647 19-267) (natural protein)”, the negative-log Kd (pKd) was 5.69.
